Target: T1, TLR7 Fc chimera (recombinant human TLR7) (Homo sapiens, UniProt Q9NYK1 27-839)
T1 sequence: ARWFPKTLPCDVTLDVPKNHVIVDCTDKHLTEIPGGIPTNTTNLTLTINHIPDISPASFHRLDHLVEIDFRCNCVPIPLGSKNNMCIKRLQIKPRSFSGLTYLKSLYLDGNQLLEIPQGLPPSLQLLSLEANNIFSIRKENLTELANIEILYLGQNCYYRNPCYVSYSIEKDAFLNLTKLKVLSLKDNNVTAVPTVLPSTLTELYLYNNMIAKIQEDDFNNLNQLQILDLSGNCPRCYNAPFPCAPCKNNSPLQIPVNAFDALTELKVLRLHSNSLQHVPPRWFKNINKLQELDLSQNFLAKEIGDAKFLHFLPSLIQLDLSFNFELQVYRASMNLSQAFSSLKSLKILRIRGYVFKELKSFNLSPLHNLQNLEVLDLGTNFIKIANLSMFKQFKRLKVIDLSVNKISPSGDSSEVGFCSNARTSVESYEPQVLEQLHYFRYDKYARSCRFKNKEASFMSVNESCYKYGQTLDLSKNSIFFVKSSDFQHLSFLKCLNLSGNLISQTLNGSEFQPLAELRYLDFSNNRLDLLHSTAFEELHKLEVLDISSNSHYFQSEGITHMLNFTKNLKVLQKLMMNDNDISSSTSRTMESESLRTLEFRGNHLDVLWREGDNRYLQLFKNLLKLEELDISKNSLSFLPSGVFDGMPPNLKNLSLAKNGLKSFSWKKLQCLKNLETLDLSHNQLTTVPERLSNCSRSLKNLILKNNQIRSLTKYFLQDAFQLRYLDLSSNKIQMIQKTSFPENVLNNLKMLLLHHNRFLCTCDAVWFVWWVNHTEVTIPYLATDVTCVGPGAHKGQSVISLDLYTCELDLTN
Assay: fluorescence anisotropy; 10 uM HEPES (so in the source), 150 mM NaCl, 300 uM EDTA, 1 mM DTT, 1% glycerol; pH and temperature not stated; FA: 20 nM RNA, 10-300 nM TLR7, 10 min; EMSA: 100 ng RNA, 1 ug TLR7 in 20 uL, 30 min, 5% polyacrylamide gel
Conditions: protein: commercial; tags: Fc chimera; chain copies: 2; label: 5' FAM

Binder	Kd [nM]	binding result
GUUGUCAAUGGUCCUUCAA (ssRNA) [XIST1.1]	138	
AGCUUAACCUGUCCUUCAA (ssRNA) [RNA9.2s]	292	
UUGAAGGACAGGUUAAGCU (ssRNA) [RNA9.2a]	752	
AAAAAAAAAAAAAAAAAAA (ssRNA) [polyA]		no binding

From PMC10634230, “The XIST lncRNA is a sex-specific reservoir of TLR7 ligands in SLE”
